In PMC6744903:

Target: MBP-XerD (V. cholerae) (UniProt Q9KPE9)
Test: pull-down

purified XafT peptide (natural protein)
fold XafT recovered against amylose beads alone: 3 fold
